Assay results taken from patent US20230203146A1 (Boehringer Ingelheim, published 2023).
Residue numbers refer to the chain shown, from its start. Like-named read-outs stand apart in the source and are kept apart here. Each block holds one binder with its values, some of them ahead of it.

Tests used:
[1] = biological target: T1, FLAG-tagged cynomolgus Ang2 (cynomolgus, UniProt O15123 19-496 (human entry), limits assumed); test: competition ELISA: FLAG-cAng2 binding to coated cTie2-Fc
T1 construct: N-terminally FLAG-tagged, conditioned medium of HEK293T cells; also called cAng2; FLAG-cAng2
T1 chain: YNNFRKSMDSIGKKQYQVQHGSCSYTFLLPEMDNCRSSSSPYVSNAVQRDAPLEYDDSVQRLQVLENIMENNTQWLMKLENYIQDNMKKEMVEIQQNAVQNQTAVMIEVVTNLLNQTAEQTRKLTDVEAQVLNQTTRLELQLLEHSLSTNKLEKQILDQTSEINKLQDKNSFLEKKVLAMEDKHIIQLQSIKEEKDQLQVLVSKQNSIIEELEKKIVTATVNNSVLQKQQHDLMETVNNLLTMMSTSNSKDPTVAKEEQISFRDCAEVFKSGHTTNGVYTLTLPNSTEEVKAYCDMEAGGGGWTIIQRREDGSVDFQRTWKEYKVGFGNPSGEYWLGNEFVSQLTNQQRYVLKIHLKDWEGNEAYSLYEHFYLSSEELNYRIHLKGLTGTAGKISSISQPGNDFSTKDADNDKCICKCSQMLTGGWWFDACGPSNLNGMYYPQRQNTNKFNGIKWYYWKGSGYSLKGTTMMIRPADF
Experimental: (§1) In brief, 2 μg/mL of recombinant mouse Tie2-Fc or cyno Tie2-Fc is coated overnight at 4° C. in a 96-well MaxiSorp plate (Nunc, Wiesbaden, Germany). Coated wells are blocked with a 1% casein solution.

FLAG-tagged mouse Ang2 [2] = biological target: T2, FLAG-tagged mouse Ang2 (mouse, UniProt O35608 19-496); test: competition ELISA: FLAG-mAng2 binding to coated mTie2-Fc
T2 construct: N-terminally FLAG-tagged, conditioned medium of HEK293T cells; also called mAng2; FLAG-mAng2
T2 sequence: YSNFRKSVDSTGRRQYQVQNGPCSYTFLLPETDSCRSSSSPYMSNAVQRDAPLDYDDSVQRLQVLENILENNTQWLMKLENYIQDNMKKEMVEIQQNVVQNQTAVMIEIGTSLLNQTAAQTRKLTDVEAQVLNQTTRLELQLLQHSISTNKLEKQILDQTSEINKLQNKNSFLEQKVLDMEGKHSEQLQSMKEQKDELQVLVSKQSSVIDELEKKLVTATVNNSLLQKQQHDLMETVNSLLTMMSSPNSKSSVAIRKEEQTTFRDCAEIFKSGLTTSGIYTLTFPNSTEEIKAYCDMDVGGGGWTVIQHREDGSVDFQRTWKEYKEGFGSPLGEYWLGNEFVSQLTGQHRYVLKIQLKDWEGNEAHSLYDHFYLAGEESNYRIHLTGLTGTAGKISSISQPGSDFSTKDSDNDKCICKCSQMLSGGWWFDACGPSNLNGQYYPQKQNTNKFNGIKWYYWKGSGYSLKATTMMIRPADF
Experimental: as §1

FLAG-tagged mouse Ang2 [3] = biological target: T2, FLAG-tagged mouse Ang2; test: as above; remark: listed apart in the source
Experimental: as §1

B1: VHH 1D01 (VHH, not shown: small tags and cut ends)
VHH: EVQLVESGGGLVQAGGSLRLSCAASGFTFDDYALGWFRQAAGKEREGVSCIRCSDGSTYYADSVKGRFTISSDNAKNTVYLQMNSLKPEDTAVYYCAASIVPRSKLEPYEYDAWGQGTQVTVSS
notes: Parental llama VHH; also called 001D01
IC50 [1]: 9.1 nM
IC50 (FLAG-tagged mouse Ang2 [2]): 12.4 nM

B2: VHH 00039 (VHH, not shown: small tags and cut ends)
VHH: B1 VHH with A14P, S72R, A75S, K87R, Q119L
IC50 [1]: 6.4 nM
IC50 (FLAG-tagged mouse Ang2 [2]): 28.1 nM

B3: VHH 00050 (VHH, not shown: small tags and cut ends)
VHH: B1 VHH with A14P, A41P, A75S, K87R, Q119L
IC50 [1]: 4.8 nM
IC50 (FLAG-tagged mouse Ang2 [2]): 18.6 nM

B4: VHH 00049 (VHH, not shown: small tags and cut ends)
VHH: B1 VHH with A14P, A75S, K87R, Q119L
IC50 [1]: 4.5 nM
IC50 (FLAG-tagged mouse Ang2 [2]): 20.3 nM

B5: VHH 00040 (VHH, not shown: small tags and cut ends)
VHH: B1 VHH with A14P, A41P, S72R, A75S, K87R, Q119L
IC50 [1]: 5.8 nM
IC50 (FLAG-tagged mouse Ang2 [2]): 29 nM

B7: VHH 00925 (VHH, not shown: small tags and cut ends)
VHH: B1 VHH with E1D, A14P, A41P, D55G, A75S, K87R, Q119L
IC50 [1]: 33 nM
IC50 (FLAG-tagged mouse Ang2 [2]): 28.4 nM

B9: VHH 00046 (VHH, not shown: small tags and cut ends)
VHH: EVQLVESGGGLVQPGGSLRLSCAASGFALDYYAIGWFRQAPGKEREGVSCISSSGGITYYVDSVKGRFTISRDNSKNTVYLQMNSLRPEDTAVYYCATDSGGYIDYDCMGLGYDYWGQGTLVTVSS
IC50 [1]: 0.16 nM
IC50 (FLAG-tagged mouse Ang2 [2]): 0.083 nM

B12: VHH 00043 (VHH, not shown: small tags and cut ends)
VHH: EVQLVESGGGLVQPGGSLRLSCAASGFTLDDYAIGWFRQAPGKEREGVSSIRDNDGSTYYADSVKGRFTISRDNAKNTVYLQMNSLRPEDTAVYYCAAVPAGRLRFGEQWYPLYEYDAWGQGTLVTVSS
IC50 (FLAG-tagged mouse Ang2 [3]): 29.2 nM
IC50 [1]: 12.6 nM

B13: VHH 00052 (VHH, not shown: small tags and cut ends)
VHH: B12 VHH with R72S, A75D
IC50 (FLAG-tagged mouse Ang2 [3]): 2.1 nM
IC50 [1]: 0.8 nM

B14: VHH 00026 (VHH, not shown: small tags and cut ends)
VHH: B12 VHH with P14A, S50A, N54S, R72S, A75D, R87K
IC50 (FLAG-tagged mouse Ang2 [3]): 2.6 nM
IC50 [1]: 1.1 nM

B17: VHH 00054 (VHH, not shown: small tags and cut ends)
VHH: B12 VHH with A75S
IC50 (FLAG-tagged mouse Ang2 [3]): 22.9 nM
IC50 [1]: 11.7 nM

B18: VHH 00048 (VHH, not shown: small tags and cut ends)
VHH: B12 VHH with P14A, N54S, R72S, A75D, R87K
IC50 (FLAG-tagged mouse Ang2 [3]): 2.1 nM
IC50 [1]: 1 nM

B19: VHH 00053 (VHH, not shown: small tags and cut ends)
VHH: B12 VHH with A75D
IC50 (FLAG-tagged mouse Ang2 [3]): 36.7 nM
IC50 [1]: 13.8 nM

Further lines, results first:

IC50 [1]: 15 nM
IC50 (FLAG-tagged mouse Ang2 [2]): 37.9 nM
B6: VHH 00051 (VHH, not shown: small tags and cut ends)
VHH: B1 VHH with A14P, D55G, A75S, K87R, Q119L

IC50 [1]: 0.13 nM
IC50 (FLAG-tagged mouse Ang2 [2]): 0.091 nM
B8: VHH 00044 (VHH, not shown: small tags and cut ends)
VHH: B9 VHH with G55D

IC50 [1]: 0.16 nM
IC50 (FLAG-tagged mouse Ang2 [2]): 0.11 nM
B10: VHH 00045 (VHH, not shown: small tags and cut ends)
VHH: B9 VHH with G55D, V61A

IC50 (FLAG-tagged mouse Ang2 [3]): 4.9 nM
IC50 [1]: 1.7 nM
B11: VHH 00025 (VHH, not shown: small tags and cut ends)
VHH: B12 VHH with P14A, S50T, N54S, R72S, A75D, R87K

IC50 (FLAG-tagged mouse Ang2 [3]): 4.6 nM
IC50 [1]: 2 nM
B15: VHH 00055 (VHH, not shown: small tags and cut ends)
VHH: B12 VHH with P14A, D55G, R72S, A75D, R87K

IC50 (FLAG-tagged mouse Ang2 [3]): 1.7 nM
IC50 [1]: 0.9 nM
B16: VHH 00041 (VHH, not shown: small tags and cut ends)
VHH: B12 VHH with R72S
